The assay has as its target T1, H46R/H48Q/C146S Sod1 labeled with Alexa-546 at C57 (yeast, Alexa-546 C5-maleimide on C57).
T1 construct: two residue (Gly-His) extension left on the N-terminus after TEV cleavage; The vector with His tag and TEV site is stated for Ccs1; the purification with tag removal is told of both proteins; also called immature Sod1; E, E-Sod1^SH; source: E. coli BL21 (DE3) pLysS, purified (HisTrap HP Ni2+ column, TEV cleavage; Superdex 200 after labeling); not shown: His8, N-terminal, cleaved
T1 sequence (P00445 2-154 with H46R H48Q C146S, looked up): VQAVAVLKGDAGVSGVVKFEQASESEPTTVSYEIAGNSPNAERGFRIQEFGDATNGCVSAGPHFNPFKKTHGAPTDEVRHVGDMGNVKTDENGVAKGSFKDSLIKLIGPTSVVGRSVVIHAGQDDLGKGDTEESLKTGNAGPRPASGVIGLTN
The assay can be described thus: other fluorescence titration; microplate, quenching of Alexa-546-labeled Sod1 on titration with Ccs1; Sod1 metal deficient and disulfide reduced (E, E-Sod1^SH); 20 mM Tris pH 7.5, 150 mM NaCl, 1 mM TCEP, 0.01% octyl glucoside and CHAPS. To be noted: both partners purified.

Broadly, the Kd is the equilibrium constant for the complex coming apart. A higher Kd goes with weaker binding.

B1: Ccs1 lacking D1 (domain or fragment)
chain: IRGAGKPNSSAVAILETFQKYTIDQKKDTAVRGLARIVQVGENKTLFDITVNGVPEAGNYHASIHEKGDVSKGVESTGKVWHKFDEPIECFNESDLGKNLYSGKTFLSAPLPTWQLIGRSFVISKSLNHPENEPSSVKDYSFLGVIARSAGVWENNKQVCACTGKTVWEERKDALANNIK
B1 had a dissociation constant (Kd) of 217 ± 38 nM.

B2: Ccs1 lacking D3 (domain or fragment)
chain: MTTNDTYEATYAIPMHCENCVNDIKACLKNVPGINSLNFDIEQQIMSVESSVAPSTIINTLRNCGKDAIIRGAGKPNSSAVAILETFQKYTIDQKKDTAVRGLARIVQVGENKTLFDITVNGVPEAGNYHASIHEKGDVSKGVESTGKVWHKFDEPIECFNESDLGKNLYSGKTFLSAPLPTWQLIGRSFVISKSLNHPENEPSSVKDYSFLGVIARSAGVW
B2 displayed an equilibrium dissociation constant (Kd) of 552 ± 105 nM.

The values are drawn from publication PMC6018003, “Quantifying the Interaction between Copper-Zinc Superoxide Dismutase (Sod1) and its Copper Chaperone (Ccs1)” (Journal of proteomics & bioinformatics, 2018).
